Laboratory results taken from US20210070843A1.
Changes are numbered by the printed parent chain.

B1: P58 (antibody, V domains shown)
VH: EVQLVESGGGLVQPGGSLRLSCAASGFTIGGGGIHWVRQAPGKGLEWVAWIWPYWGYTYYADSVKGRFTISADTSKNTAYLQMNSLRAEDTAVYYCARFNSYSYSGVMDYWGQGTLVTVSS
VL: DIQMTQSPSSLSASVGDRVTITCRASQDVYSYVAWYQQKPGKAPKLLISSSRGLYSGVPSRFSGSGSGTDFTLTISSLQPEDFATYYCQQYSSFPITFGQGTKVEIKR
B2: P44 (antibody, V domains shown)
VH: EVQLVESGGGLVQPGGSLRLSCAASGFTIDGWWIHWVRQAPGKGLEWVAGIWPFGGFTSYADSVKGRFTISADTSKNTAYLQMNSLRAEDTAVYYCARSYSGYSGDYWGQGTLVTVSS
VL: B1 VL with Y30N, S31N, Y32N, S49Y, S50W, R52S, G53S, S92Y, S93N, I96V
B3: P03 (antibody, V domains shown)
VH: EVQLVESGGGLVQPGGSLRLSCAASGFTIDSFGIHWVRQAPGKGLEWVAFIGPFGGSTFYADSVKGRFTISADTSKNTAYLQMNSLRAEDTAVYYCARFDSNSYSYHGIMDYWGQGTLVTVSS
VL: B1 VL with Y30W, S31G, S50W, R52G, G53S, S92Y, S93N, F94W, I96V

What was measured:
[1] = biological target: recombinant H3N2 WN/05 HA trimer (hemagglutinin ectodomain of A/Wisconsin/67/2005) (influenza A virus A/Wisconsin/67/2005 (H3N2)); assay: ELISA, coated HA
[2] = biological target: full-length H5 A/Vietnam/1203/2004 HA expressed on 293T cells (influenza A virus A/Vietnam/1203/2004 (H5N1)); assay: flow cytometry, HA-expressing 293T
[3] = biological target: full-length H1 A/California/07/2009 HA expressed on 293T cells (influenza A virus A/California/07/2009 (H1N1)); assay: flow cytometry, HA-expressing 293T
[4] = biological target: cell surface-expressed H3N2 WN/05 HA trimer (influenza A virus A/Wisconsin/67/2005 (H3N2)); assay: flow cytometry, HA-expressing 293T
[5] = biological target: full-length H5 A/Vietnam/1203/2004 HA expressed on 293T cells (influenza A virus A/Vietnam/1203/2004 (H5N1)); assay: cell-based or functional assay
[6] = biological target: H7 A/Anhui/1-BALF_RG17/2013 HA on H7N9 AH/13 pseudo virus (influenza A virus A/Anhui/1-BALF_RG17/2013 (H7N9)); assay: cell-based or functional assay
[7] = biological target: full-length H1 A/California/07/2009 HA expressed on 293T cells (influenza A virus A/California/07/2009 (H1N1)); assay: cell-based or functional assay
[8] = biological target: recombinant H1N1 CA/09 HA trimer (hemagglutinin ectodomain of A/California/07/2009) (influenza A virus A/California/07/2009 (H1N1)); assay: ELISA, coated HA
[9] = biological target: recombinant H5N1 VN/04 HA trimer (hemagglutinin ectodomain of A/Vietnam/1203/2004) (influenza A virus A/Vietnam/1203/2004 (H5N1)); assay: ELISA, coated HA
[10] = biological target: cell surface-expressed H3N2 WN/05 HA trimer (influenza A virus A/Wisconsin/67/2005 (H3N2)); assay: cell-based or functional assay
[11] = biological target: recombinant H7N9 AH/13 HA trimer (hemagglutinin ectodomain of A/Anhui/1-BALF_RG17/2013) (influenza A virus A/Anhui/1-BALF_RG17/2013 (H7N9)); assay: ELISA, coated HA

Molecule | EC50 [1] | max. MFI [2] | EC50 [3] | max. MFI [3] | max. MFI [4] | IC50 of pseudo virus neutralization H5N1 VN/04 [5] | IC50 of pseudo virus neutralization H7N9 AH/13 [6] | IC50 of pseudo virus neutralization H1N1 CA/09 [7] | IC50 of true virus neutralization H1N1 CA/09 [7] | EC50 [8] | EC50 [9] | EC50 [4] | IC50 of pseudo virus neutralization H3N2 WN/05 [10] | EC50 [11] | EC50 [2]
C05 (antibody) | 0.00844 µg/mL |  |  |  |  |  |  |  |  |  |  |  |  |  | 
F10 (antibody) |  | 10500 MFI | 1.05 µg/mL | 9530 MFI | 220 MFI | 0.012 µg/mL | > 200 µg/mL | 0.0119 µg/mL | 1.26 µg/mL | 0.0121 µg/mL | 0.021 µg/mL |  |  |  | 
CR8020 (antibody) | 0.0194 µg/mL | 639 MFI |  | 91 MFI | 18000 MFI | > 200 µg/mL | 0.052 µg/mL | > 100 µg/mL | > 500 µg/mL |  |  | 0.569 µg/mL | 0.0477 µg/mL |  | 
FI6V3 (antibody) | 0.0789 µg/mL | 13700 MFI | 0.067 µg/mL | 10100 MFI | 16600 MFI | 0.013 µg/mL | 0.051 µg/mL | 0.0213 µg/mL | 9.21 µg/mL | 0.0107 µg/mL | 0.00648 µg/mL | 0.065 µg/mL |  | 0.314 µg/mL | 
B1 |  | 6710 MFI | 0.25 µg/mL | 6290 MFI | 697 MFI | > 200 µg/mL | > 200 µg/mL | > 100 µg/mL | > 500 µg/mL |  | > 10 µg/mL | 3.58 µg/mL | > 20 µg/mL | 0.504 µg/mL | 0.366 µg/mL
B2 |  | 188 MFI | 0.466 µg/mL | 8480 MFI | 127 MFI | > 200 µg/mL | > 200 µg/mL | > 100 µg/mL | > 500 µg/mL |  | 0.1 µg/mL |  | > 20 µg/mL | 0.163 µg/mL | 
B3 |  | 216 MFI | 0.494 µg/mL | 6020 MFI | 147 MFI | > 200 µg/mL | > 200 µg/mL | > 100 µg/mL | > 500 µg/mL |  | > 10 µg/mL |  | > 20 µg/mL |  | 
